Literature values as cited in paper PMC11133458.

Biological target: Glu14 (UniProt position 14, GAILAEVIGTT)
Conditions: TPP-bound EmrE (Glu14 of monomer A deprotonated)

EmrE (multidrug efflux transporter, small multidrug resistance family) (Escherichia coli)
pKa: 6.8
